From PMC4066409 come the findings set out here.

The subject of one data set is NZF-1-F2F3 H515Q. Nature of the data set: fluorescence anisotropy. The note with it: not given in the material (ESI). (In general: Polarisation of emitted light reports the rotation of a fluorescent probe.)
In another data set the test system is NZF-1-F2F3 H559Q. In words: fluorescence anisotropy. The note with it: not given in the material (ESI).

For βRAR DNA, the Kd was 3 µM in the data set on NZF-1-F2F3 H515Q and 3.7 µM with NZF-1-F2F3 H559Q.

For orientation: Kd means a measure of binding affinity in units of concentration.
